Laboratory results published in the nanobody polyreactivity screen of Harvey et al. (2022).

Assay: yeast display, Sf9 membrane polyspecificity reagent, FACS + sequencing; frameworks hold sequencing errors
Method in brief: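 In a synthetic yeast display library (Saccharomyces cerevisiae BJ5465), nanobody expression was induced with galactose for 36–48 hours. FACS gates were set low and high (top ~1%) using anti-HA fluorescence for expression and streptavidin fluorescence for binding of the Sf9 membrane reagent. Each polyreactivity label is drawn from the gate of origin.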

Which “polyreactivity (PSR sort gate)” value does the source give for “QVQLVESGGCLVQAGGSLRLTCAASGYIFANNARGWYRQAPGTERELVAAISSSGGRTYYADSVKGRFTISRDNAKNTVYLQMNSLKPEDTAVYYCAAESVDNIYYGFDYWGQGTQVTVSS” here?
The value was “high polyreactivity”.

With “QVQLVESGGGLVQAGGTLRISCAASGITINYNAMGWYRQAPGKEMELVAAITRSGGSTNYADSVKGRFTISRDNAKNTVYLQMNSLKPEDTAVYYCAKGHLYAGHRHYAYGYWGQGTQVTVSS” as the sequence, how does the “polyreactivity (PSR sort gate)” value read?
The value was “low polyreactivity”.

Which “polyreactivity (PSR sort gate)” value does the source give for “QVQLQERGGGLVQAGGSLRQSCAASGTISDRAGMGWYRQAPAKNAIVATIDRGTNTNYADSVKGRFTISRDNAKNTVYLQMNSLKPEDTAVYNCAAVGRYNIYLDYWGQGTQVTVSS” here?
The value was “low polyreactivity”.

With “QVQLEESGGGLVQAGGSLRLTCAASGRIFTPYAMGWYRQAPGKQTELVADIRDGSTYYADSVKGRFTISRDNAKNTVYLQMNSLKPEDTAVYYSRYYIWVWWSGAYDYWGQGTQVTVSS” as the sequence, how does the “polyreactivity (PSR sort gate)” value read?
The value was “low polyreactivity”.

With “QVQLVESGGGLVQAGGSLRLSCAASGSIFVRYAMGWYRQAPGKERELVAAISSGGRTYYADSVKGRFTISRDNAKYTVYLQMNSLKPEDTAVYYCNAVKRVPSLGPYDYWGQGTQVTVSS” as the sequence, how does the “polyreactivity (PSR sort gate)” value read?
The value was “high polyreactivity”.

Which “polyreactivity (PSR sort gate)” value does the source give for “QVQLVESGGGLVQAGGSLRLSCAASGSIFWSYAMGWYRQAPGKEREFVAAIRGRGGNTYADSVKGRFTISRDNAKNTVYLQMNSLKPEDTAVYYCAAPLLRDLRSPYSYNYWGQGTQVTVSS” here?
Its value is “low polyreactivity”.

For “QVQLVESGGGLVQAVGSLRLSCASSGYTFDYYTMGWYRQAPGKERELVARITASGGSTYYADSVKGRFTISRDNAKNTVYLQMNSLKPEDTAVYYCAKAWYRYSRFDYWGQGTQVTVSS”, which “polyreactivity (PSR sort gate)” value is on record?
Its value is “high polyreactivity”.

For “QVQLVESGGALVQAGGSLRLICAASGSILYAYAMGWYRQAPGKERELVATNSYRGDRTRYADSVKGRFTISRDNAKNTVYLQMNSLKPEDTAVYSCAAKRKTSVPPVVKWSGYWGQGTQVTVSS”, which “polyreactivity (PSR sort gate)” value is on record?
Its value is “high polyreactivity”.

For “QVQLVESGGGLDQAGGSLRLSCVASGSIFRGNAMGWYRQAPGKERELVASISKGGGSTYYADSVKGRFIISRDNAKNTVYLQMNSLKPEDTAVYYCNAQFYNSGWSFKYYYWGQGTQVTVSS”, which “polyreactivity (PSR sort gate)” value is on record?
The value was “low polyreactivity”.

Which “polyreactivity (PSR sort gate)” value does the source give for “QVQLVEYGGGLDQAGGSLRLSCAAYGLTFSPYAMGWYRQAPGKEMELVATITIGGSTKYADSVKGRVTISRDNAKNTVYLQMNSLKPEDTAVYYCAVRSGYVTRRYDYWGQGTQVTVSS” here?
The value was “low polyreactivity”.

With “QVQLEESGGGLVQAGGSLRLSCAASGRNFLYNAMGWYRQAPGKERELVAAITASGGTTYYADSVKGRFTISRDNAKNNVYLQMNSLKPEDTAVYYCNAYSYSGERYYWGQGTQVTVSS” as the sequence, how does the “polyreactivity (PSR sort gate)” value read?
The value was “high polyreactivity”.

For “QVQVVESGGGLVQAGGSLRLSCAASGFIFNTHAMGWYRQAPGKERELVAAITWTGDSTYYADSVKGRFTISRDYAKNTVYLQMNSLKPEDTAVYYCNAATGDWETSIWTYPFWAEMYYWGQGTQVNVSS”, which “polyreactivity (PSR sort gate)” value is on record?
The value was “low polyreactivity”.

With “QVQLVESRGGLVQAGGSLRLSCAASGRTLTAYAMGWYRQAPGKERELVDDISFGGGTTYYADSVKGRFTISSDNAKNTVYLQMNSLKPEDTAVYYCAAANYVDIWDFYWFDDYWGQGTQVTVSS” as the sequence, how does the “polyreactivity (PSR sort gate)” value read?
The value was “high polyreactivity”.

Which “polyreactivity (PSR sort gate)” value does the source give for “QVQLVESGGGLVQAGGSLRLSCAASGTFHKYAMGWYRQAPGKERELVASISRSGGSTSYADSVKGRFTISRDNAKNTVYLQMNSLKPEDTAVYYCNAYQSSGRYRNSYGYWGQGTQVTVSS” here?
The value was “high polyreactivity”.

Which “polyreactivity (PSR sort gate)” value does the source give for “QVQLVESGGGLVQAGGSLRLSCAASGRIFAQYAMGWYRQAPGKERELVADISSGVRTYADSVKVRFTISRDNAKNTVYLQMNSLKPEDTAVYYCNAYYIIFTRNDYWGQGTQVTVSS” here?
Its value is “low polyreactivity”.

Which “polyreactivity (PSR sort gate)” value does the source give for “QFQLVESGGGLVQAGGSLRLSCAASGFTFDGYAMGWYRQAPGKERELVAAISDSGDSTYYADSVKGRFTISRDNAKITVYLQMNSLKPEDTAVYYCAAGLGYYWSDYFAYDYWGQGTQVTVSS” here?
The value was “low polyreactivity”.

Which “polyreactivity (PSR sort gate)” value does the source give for “QVQLLESGGGLVQAGVSLRLSCSASGFTFGRYAMGCYRQAHGKERELVAGITWSGGSTSYADSVKGRFTISRDNAKNTVYLQMNSLKPEDTAVYYCATRARYTRVHGRRYAYDYWGQGTQVTVSS” here?
The value was “high polyreactivity”.

For “QVQLVESGGGLVQAGGSLRISCAPSGSTSVQYAMGWYRQAPGKERELVAAIDRSGGSTSYADSVKGRFTISRDNAKNTVYLQMNSLKPEDTAVYYCNADPVRSTYSYDYWGQGTQVTVSS”, which “polyreactivity (PSR sort gate)” value is on record?
The value was “low polyreactivity”.

For “QVQLVESGGGLVQAGGSLRLSCAASGLTFSYYAMGWYRQAPGKERELVAASSWSGGSTYYADSVKGRFTISRDNAKNTVYLQMNSLKPDDTAVYYCAKYPNRHYWYDYWGQGTQVTVSS”, which “polyreactivity (PSR sort gate)” value is on record?
The value was “low polyreactivity”.

For “QVQLVESCGGLVQAGGSLRLSCAASGSIFPYYTMGWYRQAPWKERELVAAISGSGGSTYYADSVKGRFTISRDNAKNTVYLQMNSLKAEYTAVYYCAAYRRTWFDYWGQGTQVTVSS”, which “polyreactivity (PSR sort gate)” value is on record?
The value was “high polyreactivity”.

With “QVQLGESGGGLVQAGGSLRLSCAASGLTFYLYVMGWYRQAPGTERELVAAISRRGGSTYYADSVKGRFTISRDNAKNTVYLQMNSLNPEDTAVYYCAASVYGTYRGIQYGYWGQGTQVTVSS” as the sequence, how does the “polyreactivity (PSR sort gate)” value read?
Its value is “high polyreactivity”.

With “QVQLVESGGGLVQAGGSLRLSCAASGNTFYVKVMGWSRQAPGKERELVARITTSGGSTSYAESVKGRFTISRDNAKNTVSFQMNSMKPEDTAVYYCAASYHAFQNWEYDYWGQGTQVTVSS” as the sequence, how does the “polyreactivity (PSR sort gate)” value read?
The value was “low polyreactivity”.

For “QVQLVESGGGLVQAGGSLRLSCAASGGTIVPNAMGWYRQAPGTERELVATLTSSDTTNYADSVKGRFTISRDNAKNTVYLQMNSLKPEDTAVYYSAASFKLGYWDYYYWGQGTQVTVSS”, which “polyreactivity (PSR sort gate)” value is on record?
The value was “low polyreactivity”.

For “QVQLVESGGGLVQAGGSLRLSCAASGSTFGYYTMGWYRQAPGKERELVAAITKSGGGTYYADSVKGRFTISRDNAKNTVYLQMNSLKPEDTAVYYCNALYDYYDPYGSWGQGTQVTVSS”, which “polyreactivity (PSR sort gate)” value is on record?
Its value is “high polyreactivity”.

Which “polyreactivity (PSR sort gate)” value does the source give for “QLQLVESGGGLVQAGGSLRLSCAASGSTFSPYAMGWYRQAPGKERDLVAGITSSGGDTYYADSVKGRFTISRDNAKNTVYLQMNSLKPEDSAVYYCAADWWVLGQLWFDYWGQGTQVTVSS” here?
Its value is “low polyreactivity”.

Which “polyreactivity (PSR sort gate)” value does the source give for “QVQRVESGGGLVQAGGRLRLTCAASARIIRWYAMGWNRQAPGKERELVAAISGSGGSTYYADSVKGRFTISRDNAKNTVYLQMNSLKPEDTAVYYCAKDRDPVRAHDCWGQGTQVTVSS” here?
The value was “high polyreactivity”.

For “QVQLVESGGGLVQAGGSLRLSCAASESIFVRNAMGWYRQAPGKERELVASITYSGSRTYYADSVKGRFTISRDNAKNTVYLQMNRLKPEDTAVYYCAKVRVLVDKWSTFYEYYYWVQGTQVTVSS”, which “polyreactivity (PSR sort gate)” value is on record?
The value was “low polyreactivity”.

With “QVQLVDSGGGLVQAGGSLRLSCAASGRIFNWYAMGWYRQAPGKERELVARITWCDGGTYYADSVKGRFTISRDNAKNTVSLQMNSLKPDDTAVYYCAKQWKSYYALDYWGQGTQVTVSS” as the sequence, how does the “polyreactivity (PSR sort gate)” value read?
Its value is “high polyreactivity”.

For “QVQLVESGGGLVQAGGSLRLSCAASGIIFVKYAMGWYRQAPGKERELVAAITSGGSTYYADSVKGRFTISRDNAKNTVYLQMNSLKPDDTAVYYCNADSWFLYYFTINGYWGQGTQVTVSS”, which “polyreactivity (PSR sort gate)” value is on record?
The value was “high polyreactivity”.

Which “polyreactivity (PSR sort gate)” value does the source give for “QVQLVESGGGLVQAGGSLRLSCAASGSIFSFYAMGWYRQAPGKESELVAAISRSGGSTYYADSVKGRFTISRDNAKNTVYLQMNSQKPEDTAVYYCAVYAFSYPRYYYWGQGTQVTVSS” here?
Its value is “low polyreactivity”.

Which “polyreactivity (PSR sort gate)” value does the source give for “QVQLVESGGGLVQAGGSLRLSCADSGRTFCKYVMRWYRQAPGKERELVAVISRPAGSTYYADSVKGRFTISRDNAKNTVYLQMNSLKPEDTAVYYCAKRPKNKPVLGDYDHWGQGTQVTVSS” here?
Its value is “low polyreactivity”.

For “QVQLVESGGGLVQAGGSLRLSCAASGSIFTAYAMGWYRQAPGKEMELVAAITYNGGSTYYADSVKGRFTISRDNAKNTVYLQMNSLKPEDTAVYYCAARYWFYYDLYDYWGQGTQVTVSS”, which “polyreactivity (PSR sort gate)” value is on record?
The value was “low polyreactivity”.
